This is an account of results in paper PMC5037986.

The target of this test is recombinant mature human CD73 (soluble CD73, GPI anchor signal peptide replaced by a C-terminal 6x-histidine tag) (human). Description: SEC-MALS.

The term stoichiometry N denotes a count of units in the complex or per binding partner.

Take “recombinant mature human CD73 (soluble CD73, GPI anchor signal peptide replaced by a C-terminal 6x-histidine tag) (enzyme)”: the stoichiometry N was 2.
